For 1 substance, other: % max (maximal binding, % protein in the pellet) results are on record in paper PMC8902617.

In the assay the target is filamentous actin (rabbit skeletal muscle actin) (UniProt P68135). Kind of assay: high-speed actin cosedimentation. As to conditions: F-actin 0-25 µM; parent: 93.30 ± 3.05.

As to “ASAP1 BAR-PH (residues 1-431), His6-tagged, wild type (from UniProt Q9QWY8) K153A; K156A; K159A”, the other: % max (maximal binding, % protein in the pellet) came to 88.6%.
